Consider one molecule from US20210189007A1 (BOARD OF REGENTS OF THE UNIVERSITY OF OKLAHOMA, published 2021).

For the assay, the target named is T1, DCLK1 isoform 4 purified protein (human, UniProt O15075 314-740).
T1 construct: Purified protein used in Western blot and ELISA; also called Doublecortin-like kinase 1 isoform 4; DCLK1 purified protein
T1 sequence: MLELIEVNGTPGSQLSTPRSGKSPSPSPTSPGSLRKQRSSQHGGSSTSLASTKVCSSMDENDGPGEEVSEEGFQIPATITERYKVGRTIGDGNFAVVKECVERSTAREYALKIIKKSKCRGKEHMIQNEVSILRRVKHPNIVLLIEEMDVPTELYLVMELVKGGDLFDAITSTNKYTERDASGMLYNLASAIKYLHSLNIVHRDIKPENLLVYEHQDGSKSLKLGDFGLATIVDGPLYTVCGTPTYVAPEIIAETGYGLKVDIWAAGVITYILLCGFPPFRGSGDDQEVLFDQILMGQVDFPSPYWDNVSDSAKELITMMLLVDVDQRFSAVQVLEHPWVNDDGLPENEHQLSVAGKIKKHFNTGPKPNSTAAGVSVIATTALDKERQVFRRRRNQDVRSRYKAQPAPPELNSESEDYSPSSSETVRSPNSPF
In words: Western blot on purified protein. (In western blotting, separated proteins are transferred to a membrane and probed.)

B1: CBT-15A monoclonal antibody (antibody, V domains shown)
VH: DVKLVESGGGLVKLGGSLKLSCAASGFTFSSYYMSWVRQTPEKRLELVAAINSNGGSTYYPDTVKGRFTISRDNAKNTLYLQMSSLKSEDTALYYCARHGGNYWYFDVWGAGTTVTVSS
VL: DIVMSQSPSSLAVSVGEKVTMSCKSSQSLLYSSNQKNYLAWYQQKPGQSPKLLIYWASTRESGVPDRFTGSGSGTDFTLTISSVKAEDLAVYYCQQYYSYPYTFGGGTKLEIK
notes: Mouse hybridoma antibody raised against KLH-linked immunogen no; also called CBT-15A mAB; CBT-15 mAB (A)
For B1, the binding result is given as “binds”.
